Data published in publication doi:10.1101/2021.05.23.445342 (2021).

Molecular target: Calcineurin (human PPP3CA / PPP3R1 heterodimer) (human, UniProt Q08209 1-521; P63098 1-170)
Assay: SPR; apparent, steady-state fit

Kd: 550 nM
B1: Biotin-Cys-AKAP5c_(ILVF->SA) (domain or fragment)
chain: CVAEETKPKDTELSQESDFKENGITEEKSKSEESKRMEPIAIIITDTEISEFDVTKSKNVPKQASASAENEQVGVFANDNGFEDRTSEQYETASAETASSLVKNAAQSSAEQSANEMASDDNKINNLLQ
modifications: biotin (EZ-Link Maleimide-PEG2-Biotin) on the unique added N-terminal Cys
